Reference: US20210277144A1 (SHANGHAI INSTITUTE OF BIOLOGICAL PRODUCTS, published 2021)
Numbering of substitutions follows the chain as printed. Where two headings read alike, the source gives them in different places.

B1: 1044 human-mouse chimeric antibody (antibody, V domains shown)
VH: EVQLQQSGTELMKPGASVKISCKATGGTFSNYWIDWVKQRPGHGLEWIGEILPGSGGTDYNEKFKGKATFTADTSSNTAYMQLSSLTSEDSAVYYCARDDYDVFAYWGQGTLVTVSA
VL: DIVMTQAAFSNPVTLGTSASISCRSSKSLLHSNGITYLYWYLQKPGQSPQLLIYQMSNLASGVPDRFSSSGSGTDFTLRISRVEAEDVGVYYCAQNLELPWTFGGGTKLEIKR
B2: humanized antibody h1044-0 (antibody, V domains shown)
VH: QVQLVQSGAEVKKPGSSVKVSCKASGGTFSNYWIDWVRQAPGQGLEWMGEILPGSGGTDYNEKFKGRVTITADTSTSTAYMELSSLRSEDTAVYYCARDDYDVFAYWGQGTLVTVSS
VL: DIVMTQSPGTLSLSPGERATLSCRSSKSLLHSNGITYLYWYQQKPGQAPRLLIYQMSNLASGIPDRFSGSGSGTDFTLTISRLEPEDFAVYYCAQNLELPWTFGQGTKVEIKR
notes: also called humanized h1044-0 antibody after CDR transplantation
B3: humanized antibody with VH25 back mutation (antibody, V domains shown)
VH: B2 VH with S25T
VL: B2 VL
B4: humanized antibody with VH77 back mutation (antibody, V domains shown)
VH: B2 VH with S77N
VL: B2 VL
B5: humanized antibody hu1044-4 (VL69, VH68 back mutation) (antibody, human IgG1, V domains shown)
VH: B2 VH with V68A
VL: B2 VL with G69S
B6: humanized antibody hu1044 (VL69, VH38 back mutation) (antibody, V domains shown)
VH: B2 VH with R38K
VL: B2 VL with G69S
notes: also called final humanized antibody hu1044
B7: humanized antibody with VH76 back mutation (antibody, V domains shown)
VH: B2 VH with T76S
VL: B2 VL
B8: humanized antibody hu1044-6 (VL63/69, VH68 back mutation) (antibody, human IgG1, V domains shown)
VH: B2 VH with V68A
VL: B2 VL with I63V, G69S
B9: humanized antibody hu1044-1 (VL69 back mutation) (antibody, human IgG1, V domains shown)
VH: B2 VH
VL: B2 VL with G69S
notes: h1044-0 with Gly to Ser at VL69
B10: humanized antibody with VH1 back mutation (antibody, V domains shown)
VH: B2 VH with Q1E
VL: B2 VL
B11: humanized antibody hu1044-3 (VL69, VH48 back mutation) (antibody, human IgG1, V domains shown)
VH: B2 VH with M48I
VL: B2 VL with G69S
B12: humanized antibody hu1044-5 (VL63/69, VH38 back mutation) (antibody, human IgG1, V domains shown)
VH: B2 VH with R38K
VL: B2 VL with I63V, G69S
B13: humanized antibody hu1044-7 (VL63/69, VH67/68 back mutation) (antibody, human IgG1, V domains shown)
VH: B2 VH with R67K, V68A
VL: B2 VL with I63V, G69S

Columns and labels:
[1] = molecular target: T1, HER3 extracellular domain recombinant protein (human, UniProt P21860 20-643); assay: SPR, ProteOn XPR36; antibody captured by goat anti-human antibody, HER3 extracellular domain 1.25-20 nM as analyte, Langmuir model
T1 construct: extracellular domain; also called HER3 extracellular domain protein; HER3 protein
Protocol: (§1) And the channels were turned to horizontal position, and Channels 1-5 were injected with 20 nM, 10 nM, 5 nM, 2.5 nM, 1.25 nM of samples of HER3 extracellular domain protein respectively, and Channel 6 was injected with buffer. 5 kinetic response curves were obtained, respectively representing the results of the reaction between different concentrations of antigen and the captured antibody. The Langmuir model was used to calculate the affinity constants KD (M) of each chimeric antibody and humanized antibody mutant.

[2] = molecular target: T1, HER3 extracellular domain recombinant …; assay: as above; remark: listed apart in the source
Protocol: as §1

[3] = molecular target: T1, HER3 extracellular domain recombinant …; assay: SPR, ProteOn XPR36; compared with the chimeric antibody
Protocol: as §1

T1 sequence (P21860 20-643): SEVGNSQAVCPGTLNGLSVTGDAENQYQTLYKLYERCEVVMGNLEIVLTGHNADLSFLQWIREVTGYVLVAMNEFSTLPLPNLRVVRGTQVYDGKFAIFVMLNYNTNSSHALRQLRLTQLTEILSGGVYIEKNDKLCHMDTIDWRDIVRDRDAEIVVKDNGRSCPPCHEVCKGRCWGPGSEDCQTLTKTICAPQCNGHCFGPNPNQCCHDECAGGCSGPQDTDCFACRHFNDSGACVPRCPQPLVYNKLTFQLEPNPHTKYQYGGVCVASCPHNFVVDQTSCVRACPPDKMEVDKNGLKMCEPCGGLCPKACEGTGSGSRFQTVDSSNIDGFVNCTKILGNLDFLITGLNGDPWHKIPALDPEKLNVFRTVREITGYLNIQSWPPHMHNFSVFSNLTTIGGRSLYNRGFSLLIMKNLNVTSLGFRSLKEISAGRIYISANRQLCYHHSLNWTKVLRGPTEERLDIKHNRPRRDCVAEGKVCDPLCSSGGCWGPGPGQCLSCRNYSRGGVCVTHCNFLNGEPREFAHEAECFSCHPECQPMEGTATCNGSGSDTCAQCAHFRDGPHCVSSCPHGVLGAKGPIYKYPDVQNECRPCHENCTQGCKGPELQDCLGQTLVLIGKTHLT

Row | Binder | Kd [1] | koff [1] | kon [1] | Kd [2] | koff [2] | kon [2] | fold lower affinity than the chimeric antibody [3] | fold of the affinity constant of the chimeric antibody [3] | fold difference in affinity from the chimeric antibody [3]
1 | B1 | 278 pM | 0.000293 s⁻¹ | 1.05e+06 M⁻¹ s⁻¹ | 262 pM | 0.000229 s⁻¹ | 874000 M⁻¹ s⁻¹ |  |  | 
2 | B2 |  |  |  | 8480 pM | 0.00427 s⁻¹ | 503000 M⁻¹ s⁻¹ | ~32 fold |  | 
3 | B3 |  |  |  | 6020 pM | 0.00317 s⁻¹ | 525000 M⁻¹ s⁻¹ |  |  | 
4 | B4 |  |  |  | 7070 pM | 0.00327 s⁻¹ | 463000 M⁻¹ s⁻¹ |  |  | 
5 | B5 | 461 pM | 0.000388 s⁻¹ | 841000 M⁻¹ s⁻¹ |  |  |  |  | ≤ 2 fold | 
6 | B6 | 442 pM | 0.000386 s⁻¹ | 875000 M⁻¹ s⁻¹ |  |  |  |  | ≤ 2 fold | 
7 | B7 |  |  |  | 6490 pM | 0.00344 s⁻¹ | 531000 M⁻¹ s⁻¹ |  |  | 
8 | B8 | 420 pM | 0.00038 s⁻¹ | 904000 M⁻¹ s⁻¹ |  |  |  |  |  | 
9 | B9 | 595 pM | 0.000502 s⁻¹ | 843000 M⁻¹ s⁻¹ |  |  |  |  |  | ~2 fold
10 | B10 |  |  |  | 9140 pM | 0.00382 s⁻¹ | 418000 M⁻¹ s⁻¹ |  |  | 
11 | B11 | 554 pM | 0.000494 s⁻¹ | 882000 M⁻¹ s⁻¹ |  |  |  |  | ≤ 2 fold | 
12 | B12 | 419 pM | 0.000353 s⁻¹ | 844000 M⁻¹ s⁻¹ |  |  |  |  |  | 
13 | B13 | 375 pM | 0.000376 s⁻¹ | 1e+06 M⁻¹ s⁻¹ |  |  |  |  |  | 
